Measured values: the DeepSol protein solubility set

Assay: soluble on expression in E. coli; label from the status in PepcDB or PDB records
With “EQIDRWNQVSEYIERLNVLEDNGSNTLIIASGIAYPYVKEITEEEGLNANIFRLVTPVPIPEKSILDSMTRVKKVLVVEENDPVVELQLSQLMVKNGIMKELHGKDLVSPIGELTLEKVRGAIMGFFGKEYVRSYPDDVSLRTRPPALCPGCPHRSSFYDIKKGLSKVSMQKAFFSGDIGCYTLGALPPFNEQDSATNMGSSVGISNGVFRATGQIPVSIIGDSTFFHSGLQGVANAVYNGTPEIIIVLDNRSTAMTGQQPSPSTHISIENVARAMGIDFVDTFDPFDVKEGSDAVQKAAEYVKENKKPALIVAKRACALEVLEKVGDYTMKAEVDLEKCTGCSICYDFFTCPSILPLSNKKAFIDDSCIGCGACVEVCPFNAIK” the “soluble on expression in E. coli” value was “not soluble”.
For “EQQADGTWLMDGWISIRKASNLLEHDLVDEAERYSTLGGYLLWQFGYIPAAGEQITVDGLIFEIVSVNKHNIGKVRVHRTQPENE”, the “soluble on expression in E. coli” value was “not soluble”.
With “ERVPEGSIRVAIASNNGEQLDGHFGSCLRFLVYQVSAKDASLVDIRSTLDVALAEDKNAWRVEQIQDCQVLYVVSIGGPAAAKVVRAGIHPLKKPKGCAAQEAIAELQTVMAGSPPPWLAKLVGVSAEERVRFSVSDDEDEAARA” the “soluble on expression in E. coli” value was “soluble”.
With “EVIDLASPIEAHGETLSQVTFRRPTAQEARAIKALPYKIDKNEDVSLDLDVAAKYIAVCAGIPPSSVNQMDLCDINTLSWKVASFFMAAAS” the “soluble on expression in E. coli” value was “not soluble”.
For “EVQLLEQSGAEVKKPGSSVQVSCKASGGTFSMYGFNWVRQAPGHGLEWMGGIIPIFGTSNYAQKFRGRVTFTADQATSTAYMELTNLRSDDTAVYYCARDFGPDWEDGDSYDGSGRGFFDFWGQGTLVTVSSASTKGPSVFPLAPSSKSTSGGTAALGCLVKDYFPEPVTVSWNSGALTSGVHTFPAVLQSSGLYSLSSVVTVPSSSLGTQTYICNVNHKPSNTKVDKKVEPKSCDKTS”, the “soluble on expression in E. coli” value was “soluble”.
In the case of “EVQLVESGGGLVQPGGSLRLSCAASGFTISSSSIHWVRQAPGKGLEWVAWVLPSVGFTDYADSVKGRFTISADTSKNTAYLQMNSLRAEDTAVYYCARRVCYNRLGVCAGGMDYWGQGTLVTVSSASTKGPSVFPLAPSSKSTSGGTAALGCLVKDYFPEPVTVSWNSGALTSGVHTFPAVLQSSGLYSLSSVVTVPSSSLGTQTYICNVNHKPSNTKVDKKVEPKSCDKTH”, the “soluble on expression in E. coli” value is reported as “soluble”.
With “EYYDVRGWDPHDRQVYTPIHEACYDRGGIFFAFFDDEQMIAAAALDTLPRGMNGELRQLLFFYVGAGKRGQGWGRRLFQYALHQLPEMGASGLYISSIPNKNTVDFYLAQG” the “soluble on expression in E. coli” value was “not soluble”.
With “FADRMVIKAQSPAGFAEEYIIESIWNNRFPPGTILPAERELSELIGVTRTTLREVLQRLARDGWLTIQHGKPTKVNNFWETSGLNILETLARLDHESVPQLIDNLLSVRTNISTIFIRTAFRQHPDKAQEVLATANEVADHADAFAELDYNIFRGLAFASGNPIYGLILNGMKGLYTRIGRHYFANPEARSLALGFYHKLSALCSEGAHDQVYETVRRYGHESGEIWHRMQKNLPGDLAIQGR” the “soluble on expression in E. coli” value was “soluble”.
With “FGNFNFNTNFVFGYAKNRVDYKAEAQQKYEWLRETGRQIGQPFGYHWIGYYTPEDIEKINSGAADAPAKPDIAVQAGDLKYADLNGDGTINDFDKRAIGKPNLPTTTLGWTIGGSWKGFSISVLFQGSFDYSFAINGTGIESGKSQFQPLHQKRWTQERYENGESIEFPRLTMQDGTINSASAYNSDFWLINAWYIRLKTVDLGYQLPKTALPKFLDNVRFYVNAYNLLTFTGYDKYQQDPEIKTNTAGDAYMNQRVINFGVQLGF” the “soluble on expression in E. coli” value was “not soluble”.
In the case of “FNDWYVSARANFTYNRNKKLYDDKPTPIWPYQSEAGFAYRQQRGLIALGLFESEEDIANSPKQNFGNVRPGDIKYKDINGDNVIDAYDKVAIGYTDVPEINYGFGISLGWKGFDASLFMQGVGNVTRIIGGDALYGASDNIERLGQIYADVAEKRWTTSNPNPNATYPRLSMSKVENNLQPSTYWQRNMSFLRLKNVEIGYTLPKHIYKRLGMSSIRVYAQGVNLLTFSKFKLWDPELDSNYGNIYPQMRTITLGLNLNF”, the “soluble on expression in E. coli” value is reported as “not soluble”.
In the case of “FQDVTNTPVEGMKPYTALQLEGRDIYIREGCVGCHSQMIRPFRAETERYGHYSVAGESVWDHPFLWGSKRTGPDLARVGSRYSDDWHRAHLFNPRNVVPESKMPAYPWLVENKLDGKDIEKKLEVMRTLGVPYTDEDIKGAKDSLKGKTEMDAVVAYLQVLGTSIK”, the “soluble on expression in E. coli” value is reported as “not soluble”.
In the case of “FRFCFKQMNKSQHELVLGWIHQPHINEWLHGDGLSNTIKDLHEFLNDGKPWATHWIAYDNEIPFAYLITSEIEKSEEYPDGAVTLDLFICRLDYIGKGLSVQMIHEFILSQFSDTKIVLINPEISNERAVHVYKKAGFEIIGEFIASWHPVPHYKMKLCI”, the “soluble on expression in E. coli” value is reported as “not soluble”.
In the case of “FTGFFIGPMAEVTIPLVGLGVDGALLFAQRGVKVGDESIRQNGLDIPINLKYTIGLGSALGIYVAAGPDFYFNFSGDKNYGELGRLNKKNAQVGINVGAGVKLLRHLQVGANYNIPLNKTAEWKEADFSYKTKMWQISAAYIF”, the “soluble on expression in E. coli” value is reported as “not soluble”.
With “FTNPGQIVGRIDRDSGMTSTAPAMPDGDWQAYGRTEFGDRYSPLKQITPANVGQLEEAWRIRTGDLPTADDPLELTNENTPLKVNGMLYACTAHSKVLALDPDTGAEIWRFDPQIQSPVGFKGFAHMTCRGVSYYDEEQYARSDVGAPPAALSEAGKAVAASCPRRLFLPTADARLIAINADNGKVCEDFGVKGAVDLTAGIGPFTPGGYYSTSPAAVTRNLVIIGGHVTDNESTNEPSGVIRAFDVHDGKLVWNWDSGNPDETEPLAPGKFYTRNSPNMWSLASVDEKLGQVYLPLGNQMPDQWGGNRTPGAEKFSAGLVALDLNTGKLRWNYQFTHHDLWDMDVGSQPTLLDLKTADGVKPALIAPTKQGSLYVLDRRDGTPIVPIREVPAPQGAVEGDHTAPTQARSDLNLLRPPLTERDMWGSSPFDQMLCRIQFRSLRYEGQYTPPSEQGSLIYPGNVGVFNWGGVSVDPVRQILFTSPNYMAFVSQMVPRDKVPSGSKREGETSGVQPNTGAPYAVIMHPFMSPIGLPCQAPSWGDVAGIDLTTAKVVWQHKNGTSRDNTPVPIGLTVGVPSMGGSITTAGGVAFLSGTLDQYLRAYDVKDGKQLWQARLPAGGQATPMSYTGKDGRQYVLIVAGGHGSFGTRMGDYIIAYALPR” the “soluble on expression in E. coli” value was “not soluble”.
With “FYRNHYKITYKRRLSDLFREFYLTSSRTKWQLCITLGVALVMLVSRELGLPRPMWAGFAAMSVMQPFAEDLKQRVKHRLPGTIAGGLLFLLLCRVLPE” the “soluble on expression in E. coli” value was “not soluble”.
With “GAAAGVAAWLPFARAAAIGWMPVANCPMPLAPADKNKRQDELIVLNVSGRRFQTWRTTLERYPDTLLGSTEKEFFFNEDTKEYFFDRDPEVFRCVLNFYRTGKLHYPRYECISAYDDELAFYGILPEIIGDCCYEEYKDRKREN” the “soluble on expression in E. coli” value was “soluble”.
For “GADEEESTPCDNVETDQQTFACAAFNKQVAERELQSAYDELIERMRDQFGDEAGLMSRIEAAEKVWSQLRDADCKVETHAEQPGSNAYQIAWNSCIAQRSDERAEYLRSLGSQNSDEPAPED”, the “soluble on expression in E. coli” value was “soluble”.
With “GAHMSVIKPEMKIKLCMRGTVNGHNFVIEGEGKGNPYEGTQILDLNVTEGAPLPFAYDILTTVFQYGNRAFTKYPADIQDYFKQTFPEGYHWERSMTYEDQGICTATSNISMRGDCFFYDIRFDGTNFPPNGPVMQKKTLKWEPSTEKMYVEDGVLKGDVNMRLLLEGGGHYRCDFKTTYKAKKEVRLPDAHKIDHRIEILKHDKDYNKVKLYENAVARYSMLPSQAK” the “soluble on expression in E. coli” value was “soluble”.
For “GAKSIYEFQVNAADGKPYDLSQHKGHPLLIYNVASRCGYTKGGYETATTLYNKYKGQGFTVLAFPCNQFAGQEPGTALEVKEFACTRFKADFPIMAKIDVNGSKAHPLYEFMKATIPGLFGTKAIKWNFTSFLIDRHGVPVERFSPGASVEDIEKKLLPLLGGARI”, the “soluble on expression in E. coli” value was “soluble”.
For “GALPDPVKPKAPKAVNPFHLGMAGYTFVNFDLDTTLKTLERLDIHYLCIKDFHLPLNSTDEQIRAFHDKCAAHKVTGYAVGPIYMKSEEEIDRAFDYAKRVGVKLIVGVPNYELLPYVDKKVKEYDFHYAIHLHGPDIKTYPDATDVWVHTKDLDPRIGMCLDVGHDLRNGCDPVADLKKYHTRVFDMHIKDVTDSSKAGVGIEIGRGKIDFPALIRMMREVNYTGMCSLEYEKDMKDPFLGIAESIGYFKAVSDLT”, the “soluble on expression in E. coli” value was “soluble”.
With “GAMDISPTNHHEMLQNLQTVVNELYREDVDYVADKILTRQTVMQESIARFHEIIAIDKNHLRAVEQAIEQTMHSLNAQIDVLTANRAKVQQFSSTSHVDDEDVNSIAVAKTDGLNQLYNLVAQDYALTDTIECLSRMLHRGTIPLDTFVKQGRELARQQFLVRWHIQRITSPLS” the “soluble on expression in E. coli” value was “soluble”.
In the case of “GAMGNICNSGGVSRTYSPPTSPVYGSGVSSPSRFVGQYTLTSIHQLSSEERENFLDAHDPMRVYDLNSETSVYRTTQREYVRNGYATGNPNSGAIIALHEELQESPYAQHIGARPDQADAYRPRTAHVSSLNTPSLNVMAGQGALSALRGYAGSDHVTTEMRLGDFLDQGGKVYSDTSAMSAGGDSVEALIVTLPKGRKVPVNILD”, the “soluble on expression in E. coli” value is reported as “soluble”.
With “GAMGSSLDNPTPFPNLGPSENPLKRLLVPGEEWEFEVTAFYRGRQVFQQTISCPEGLRLVGSEVGDRTLPGWPVTLPDPGMSLTDRGVMSYVRHVLSCLGGGLALWRAGQWLWAQRLGHCHTYWAVSEELLPNSGHGPDGEVPKDKEGGVFDLGPFIVDLITFTEGSGRSPRYALWFCVGESWPQDQPWTKRLVMVKVVPTCLRALVEMARVGGASSLENTVDLHISNSHPLSLTSDQYKAYLQDLVEGMDFQGPGES” the “soluble on expression in E. coli” value was “soluble”.
In the case of “GAMIRSRQPLLDALGVDLPDELLSLALTHRSYAYENGGLPTNERLEFLGDAVLGLTITDALFHRHPDRSEGDLAKLRASVVNTQALADVARRLCAEGLGVHVLLGRGEANTGGADKSSILADGMESLLGAIYLQHGMEKAREVILRLFGPLLDAAPTLGAGLDWKTSLQELTAARGLGAPSYLVTSTGPDHDKEFTAVVVVMDSEYGSGVGRSKKEAEQKAAAAAWKALEVLDNAMPGKTSA”, the “soluble on expression in E. coli” value is reported as “soluble”.
In the case of “GAMPPIFLPPPNYLFVRDVWKSNLYSEFAVIRQLVSQYNHVSISTEFVGTLARPIGTFRSKVDYHYQTMRANVDFLNPIQLGLSLSDANGNKPDNGPSTWQFNFEFDPKKEIMSTESLELLRKSGINFEKHENLGIDVFEFSQLLMDSGLMMDDSVTWITYHAAYDLGFLINILMNDSMPNNKEDFEWWVHQYMPNFYDLNLVYKIIQEFKNPQLQQSSQQQQQQQYSLTTLADELGLPRFSIFTTTGGQSLLMLLSFCQLSKLSMHKFPNGTDFAKYQGVIYGIDGDQ”, the “soluble on expression in E. coli” value is reported as “soluble”.
In the case of “GAMSYSLYGTTLEQQYNKPLSDLLIRCINCQKPLSPEEKQRHLDKKQRFHNIRGRWTGRCMSCSRSSRTRRETQL”, the “soluble on expression in E. coli” value is reported as “soluble”.
For “GATDSATAAPAAAATTQVQKEAADVLQVAVQGANAMRDIQFARLALFHGQPDSAKKLTDDAAALLAADDASWAKFVKTDAKAKMIADRYVIINASIALSEDYVATPEKESAIQSANEKLAKGDQKGAIDTLRLAGIGVIENQYLMPLNQTRKAVAQSQELLKAGKYYEANLVLKGAEEGIVVDSEMLVAGN”, the “soluble on expression in E. coli” value was “soluble”.
For “GATITHQEKLLTVDTTAHPFLKALGGHEGTDIFPLFMDPYNGLMVMRASFAPGLTLPLHFHTGTVHMYTISGCWYYTEYPGQKQTAGCYLYEPGGSIHQFNTPRDNEGQTEVIFMLSGCNVNFTQDGTYLGLSDAGVIKNWVDRAIREQDNGLRYIAAAVPTYAA”, the “soluble on expression in E. coli” value was “soluble”.
